In the DeepSol protein solubility set:

Assay: soluble on expression in E. coli; label from the status in PepcDB or PDB records

Sequence | soluble on expression in E. coli
MCDIGNLTQYRQAQEDILRGRVKVRVVGQDKGGGVVMGEGVEIAPGARIEGPVLIGGACHIATGAVVGPFTVLGPYTRVEEGATVRRSVLWDNVYTGEGANVRGLEHHHHHH | not soluble
MTISELLQYCMAKPGAEQSVHNDWKATQIKVEDVLFAMVKEVENRPAVSLKTSPELAELLRQQHSDVRPSRHLNKAHWSTVYLDGSLPDSQIYYLVDASYQQAVNLLPEEKRKLLVQL | not soluble
MTAALPDLSFHPAWHAQLELAYARAGDATRPVTRRHAGPLRVQKHLYAEGPEVCQHILVHPPGGIAGGDSLAFDVRLGERAWAQLTSPGAAKWYRAACPARQTLEIHLEPGATLEWLPQESIVFAGAQAELETRIQLRGDARLFYWDMVALGRPASGERFASGHFVAALDIRRDDRLLWHERQRIDGGDRLLDSPIGLAGHPVLATLVASGEIDTDLLQRCRALPCAGRGNLSQLPGGLLVARCLADEALHARAWLIELWRLLRPALLGREAVPPRIWSTLEHHHHHH | not soluble
MPQSLISELHTQYAQFVRKHPHAERDFSDALEDVLTDAGLTYDRVSARIKDWHSLKTKARKKNAQGAFIYPHPWDDVHDIIGVRITTLHSTEIPQIIEALADVFTVERSVDKTALTRISGSFGYGSHHLILKIDDRVKDLNNYVGMVFEVQIRTVLQHAWAEFEHDIRYKRSGDLDPQIDRAFTLAAGLIELADQQFDLIAAIQEPQKHSPNLEVDITAETLPGVIAMLVGSRFPQSRSEHYRWLEELLFAHSITTAAQLKELLNDRDIEAVRKALNYKFKPGQVRIIDDLLLYRYGTKHIEATGETGKNPRLRLPRLNERLRILNKHAPRNRSDLQQS | not soluble
MSLQKNGYRIQFTSSRIRDLMYRTTFDPKKMDGDIILNLSLIDKKDLDDVLGIFKMVISSGLSVTPYVKVISEGESIGDMTIEKGKVGIGTVCSITIDGVLLKAGIPVNPKLGGVVQIRNGIPVRFTDVLTYVSTTVDPLEILMSQGITSVSEMLRTGSGKVLANLREAPMVARDEIESNLSDLLDAGFSGILEVGEPNTRVLDVPIERDHLGIVVIGGTNPMAVVQEYGIPIDTSAMSRLISFKEMSRIEDLVEGHHHHHH | soluble
MGSDKIHHHHHHMRQLSINRLKEGDILGRTIYANDGRVLLGKGMALTKSYIDRLKTLGINILYIDDEVSKDIIVEDIISEEHRREAMASLDNAVQAVKVGKDFDGFNVKRNIDNIIQDILFQKDIFIGLTDMRTYDNQIFAHSVNVCVLSIVLGKALGLDRENLEGLAIGALFHDIGTVKLPKKLLSKREPFTPKEAALYQTHTNHGFDILRTKRELNLLSAHIAFQHHERLNGNGYPRKLEGDAIHQWAQIVGIANFYDNLVNDGPGHTRIPPYEACEILMGSAEKFFPKDLVITFLKHIAAYPTGCTVKLSTGETGIVVEQNKSLPMRPIIRVLVADQTLSRVQAKEYNLVEERTLFIESILE | not soluble
MKSVKNSWNSSIKDGEYQRKESQFRNWITTDGSAGITGRGGFQAEAGRYHLYVSLACPWAHRTLIFRQLKGLEDLITVSVVHPDMHENGWSFKHDEESAKLYGTTGDNLYDGKFISEKYLAQDPDYSGVNSVPVLWDKKDKVIVNNESSEIIRMFNSAFNDITGNTLDFYPEHLREKIDHENELVYHKINNGVYKTGFATTQEAYDKNVNELFAALEQIDEKLSKQRYLTGDEITEADWRLWATLVRFDSVYHTHFKCNLKLIKEFSNIYNYMLELFQVPNVAKTVNEAHIKRHYYASHVAINPYGIVPIAHQQDWTAQHNRDKQFS | not soluble
MGHHHHHHSHMDVVDPDIFNRDPRDHYDLLQRLGGGTYGEVFKARDKVSGDLVALKMVKMEPDDDVSTLQKEILILKTCRHANIVAYHGSYLWLQKLWICMEFCGAGSLQDIYQVTGSLSELQISYVCREVLQGLAYLHSQKKIHRDIKGANILINDAGEVRLADFGISAQIGATLARRLSFIGTPYWMAPEVAAVALKGGYNELCDIWSLGITAIELAELQPPLFDVHPLRVLFLMTKSGYQPPRLKEKGKWSAAFHNFIKVTLTKSPKKRPSATKMLSHQLVSQPGLNRGLILDLLDKLKNPGKGPSIGDIEDEEPELPPAIPRRIRSTHRSSSLGIPDADCCRRHMEFRKLRGMETRPPANTARLQPPRDLRSSSPRKQLSES | soluble
